Here are results for 1 molecule from patent US20080242590A1, “New Method 706” (ASTRAZENECA AB, priority 2007, published 2008).

Data set [1] is described as follows: Pharmacokinetics of Fc-Nep and commercial neprilysin, single i.v. dose (Example 20). In kind it is in vivo. The conditions noted are these: mice, single i.v. dose 1 alternatively 5 mg/kg. The procedure: The Fc-Nep fusion protein was developed to improve the pharmacokinetic entities of neprilysin with the specific aims to reduce clearance and improve half-life. To test this we have administrated a single i.v. dose of either 1 mg/kg commercial neprilysin or 1 alternatively 5 mg/kg in-house produced Fc-Nep to mice. At set times after dosing blood samples were drawn from the tail vein or by heart puncture at termination. Upon sampling into tubes containing EDTA the aliquots were put on ice. Plasma was prepared by centrifugation within 15 minutes of sampling (typically 1500 g at 4° C. for 10 min) and immediately frozen. Plasma concentrations of Fc-Nep and neprilysin were determined via immunoassays using either anti-Nep for commercial neprilysin or anti-human IgG for Fc-Nep as capture antibodies while both substances were detected via an anti-Nep antibody. Pharmacokinetic parameters are calculated using a software package (WinNonlin, Pharsight Corporation, USA) and in this example experiment the calculated half-life had increased from about 5 minutes for Nep to about 20 hours for Fc-Nep.

Data set [2] concerns fluorogenic peptide substrate V—Mca-Arg-Pro-Gly-Phe-Ser-Ala-Phe-Lys(Dnp)-OH. Kind of data set: Neprilysin enzyme activity FRET assay, cell media. It is filed as biochemical. As to the method: (§1) The Neprilysin enzymatic activity was determined in a fluorescence resonance energy transfer (FRET) assay. Recombinant Human Neprilysin (R&D Systems), culture medium from Neprilysin or Fc-Neprilysin producing cells (AZ Sodertalje) or purified Neprilysin or Fc-Neprilysin was added into 96-well plate containing 10 μM of fluorogenic peptide substrate V—Mca-Arg-Pro-Gly-Phe-Ser-Ala-Phe-Lys(Dnp)-OH (R&D Systems). The final concentration of the control recombinant human Neprilysin was 0.1 or 0.25 μg/ml. 10 μM of Neprilysin inhibitor phosphoramidone (BIOMOL) was added into some wells in order to control the specificity of the signal in the assay and verify the specific Neprilysin activity. Following addition of all components to wells, plate was immediately placed into a fluorescent plate reader (Ascent) and signal was recorded for every minute for 20 minutes at the excitation 340 nm and emission 405 nm. The activity of enzyme was evaluated by calculating the velocity of reaction−Slope coefficient=ΣΔRFU/Δt. In order to compare the specific activity of the commercial recombinant Neprilysin and Fc-Neprilysin fusion protein, we introduced the specific activity coefficient, which is calculated according to this formula: Specific activity=slope coefficient/pmol of Neprilysin or monomer of Fc-Neprilysin in assay. […]

The test system is the same in data set [3]. The data set is described as follows: Neprilysin enzyme activity FRET assay, purified protein. It is filed as biochemical. As to conditions: purified fusion protein. As to the method: as §1
A short description of data set [4]: Plasma exposure (Example 25). As to conditions: for Mean plasma exposure: 5 mg/kg i.v. In kind it is in vivo, C57BL/6 mice. The procedure: 20-21 weeks old female C57BL/6 mice (8 mice/group) received vehicle or hFc-Nep at 5 mg/kg as a single intravenous injection and Aβ40 was analysed at different time points after injection (between 1.5-168 hours, i.e., up to 1 week). The γ-secretase inhibitor M-550426 was given per orally and the animals were treated for 3 hours. A blank group was also included in the study. […] Blood collection, plasma processing and measurement of mouse Aβ40 levels in plasma were basically as described in Example 27.

Data set [5] in a line: Pharmacokinetics of Fc-Nep and in-house produced Neprilysin, single i.v. dose (Example 27). It is filed as in vivo. The conditions noted are these: mice, single i.v. dose 10 or 50 nmol enzyme/kg (1 and 5 mg/kg). The procedure:
The Fc-Nep fusion protein was developed to improve the pharmacokinetic entities of neprilysin with the specific aims to reduce clearance and improve half-life. To test this we have administrated a single i.v. dose of 10 or 50 nmol enzyme/kg body weight neprilysin (Nep) or Fc-Nep (1 and 5 mg/kg) to mice. At set times the dose blood samples were drawn from the tail vein or by heart puncture at termination. Upon sampling into tubes containing EDTA the aliquots were put on ice. Plasma was prepared by centrifugation within 15 minutes of sampling (typically 1500 g at 4° C. for 10 min) and immediately frozen. Plasma concentrations of Nep and Fc-Nep were determined via immunoassays using either anti-Nep for Nep or anti-human IgG for Fc-Nep as capture antibodies while both substances were detected via an anti-Nep antibody. Pharmacokinetic parameters are calculated using a software package (WinNonlin, Pharsight Corporation, USA) and in this example experiment the calculated half-life had increased from about 1 day for Nep to about 2.5 weeks for Fc-Nep.

B1: Fc-Neprilysin: extracellular domain of human Neprilysin fused to the human IgG2 Fc domain (including hinge), Fc at N-terminus; SEQ ID NO 11 (protein)
chain: ERKCCVECPPCPAPPVAGPSVFLFPPKPKDTLMISRTPEVTCVVVDVSHEDPEVQFNWYVDGVEVHNAKTKPREEQFNSTFRVVSVLTVVHQDWLNGKEYKCKVSNKGLPAPIEKTISKTKGQPREPQVYTLPPSREEMTKNQVSLTCLVKGFYPSDIAVEWESNGQPENNYKTTPPMLDSDGSFFLYSKLTVDKSRWQQGNVFSCSVMHEALHNHYTQKSLSLSPGKYDDGICKSSDCIKSAARLIQNMDATTEPCTDFFKYACGGWLKRNVIPETSSRYGNFDILRDELEVVLKDVLQEPKTEDIVAVQKAKALYRSCINESAIDSRGGEPLLKLLPDIYGWPVATENWEQKYGASWTAEKAIAQLNSKYGKKVLINLFVGTDDKNSVNHVIHIDQPRLGLPSRDYYECTGIYKEACTAYVDFMISVARLIRQEERLPIDENQLALEMNKVMELEKEIANATAKPEDRNDPMLLYNKMTLAQIQNNFSLEINGKPFSWLNFTNEIMSTVNISITNEEDVVVYAPEYLTKLKPILTKYSARDLQNLMSWRFIMDLVSSLSRTYKESRNAFRKALYGTTSETATWRRCANYVNGNMENAVGRLYVEAAFAGESKHVVEDLIAQIREVFIQTLDDLTWMDAETKKRAEEKALAIKERIGYPDDIVSNDNKLNNEYLELNYKEDEYFENIIQNLKFSQSKQLKKLREKVDKDEWISGAAVVNAFYSSGRNQIVFPAGILQPPFFSAQQSNSLNYGGIGMVIGHEITHGFDDNGRNFNKDGDLVDWWTQQSASNFKEQSQCMVYQYGNFSWDLAGGQHLNGINTLGENIADNGGLGQAYRAYQNYIKKNGEEKLLPGLDLNHKQLFFLNFAQVWCGTYRPEYAVNSIKTDVHSPGNFRIIGTLQNSAEFSEAFHCRKNSYMNPEKKCRVW
As for B1, the calculated half-life result in data set [1] is recorded as “about 20 hours”; in data set [5], “about 2.5 weeks”. In addition, the “Specific activity (slope coefficient/pmol)” value came out at 13.4 in data set [2] (expression with pCEP4 vector), 15.2 in data set [2] (expression with pEAK10 vector) and 14.1 in data set [3]. The Mean plasma exposure is 38 µg/mL in data set [4] (1 week (168 hours)) and 87 µg/mL in data set [4] (1.5 hours). Besides, the half-life in mice result in data set [4] (5 mg/kg single i.v.) was “considerably long”.
